Data reported in paper PMC4738335, “MatP regulates the coordinated action of topoisomerase IV and MukBEF in chromosome segregation” (Nature Communications, 2016).
Each block holds one binder with its values, some of them ahead of it.

How the values were obtained:
Details in all cases: both partners purified
[1] = molecular target: T1, MukB Hinge, purified (36 kDa) (E. coli, UniProt P22523 566-863); test: SEC; Superose 6 10/300 GL; 50 mM HEPES pH 7.5, 100 mM NaCl, 1 mM DTT, 1 mM EDTA, 5 mM MgCl2; MatPΔC18 (73 μM) and/or Hinge (15 μM); fractions on SDS-PAGE
T1 construct: MukB, E. coli, residues 566-863 (Hinge construct); printed size 36 kDa; details of purification are in Supplementary Methods; source: E. coli C3013I, pET vector, purified
T1 sequence (looked up): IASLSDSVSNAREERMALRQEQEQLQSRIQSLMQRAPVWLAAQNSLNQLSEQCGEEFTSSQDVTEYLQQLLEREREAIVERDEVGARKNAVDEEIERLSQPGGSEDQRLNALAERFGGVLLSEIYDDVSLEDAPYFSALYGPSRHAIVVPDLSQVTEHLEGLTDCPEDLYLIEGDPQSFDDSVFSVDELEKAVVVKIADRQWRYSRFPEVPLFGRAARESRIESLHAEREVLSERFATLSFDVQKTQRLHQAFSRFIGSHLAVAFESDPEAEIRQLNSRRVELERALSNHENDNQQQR

MukB–Flag = molecular target: T2, MukB–Flag (E. coli, UniProt P22523 1-1486); test: co-IP; MukB–Flag or Hinge–Flag from cell lysate bound to anti-Flag M2 Affinity gel and washed; purified MatPΔC18-6×His added in 50 mM HEPES pH 7.5, 100 mM NaCl, 45 min, 4 °C; SDS-PAGE
T2 construct: MukB, E. coli; printed MW with Flag 171.7 kDa; The printed mass fits the whole protein; also called FLAG-tagged MukB
T2 sequence (looked up): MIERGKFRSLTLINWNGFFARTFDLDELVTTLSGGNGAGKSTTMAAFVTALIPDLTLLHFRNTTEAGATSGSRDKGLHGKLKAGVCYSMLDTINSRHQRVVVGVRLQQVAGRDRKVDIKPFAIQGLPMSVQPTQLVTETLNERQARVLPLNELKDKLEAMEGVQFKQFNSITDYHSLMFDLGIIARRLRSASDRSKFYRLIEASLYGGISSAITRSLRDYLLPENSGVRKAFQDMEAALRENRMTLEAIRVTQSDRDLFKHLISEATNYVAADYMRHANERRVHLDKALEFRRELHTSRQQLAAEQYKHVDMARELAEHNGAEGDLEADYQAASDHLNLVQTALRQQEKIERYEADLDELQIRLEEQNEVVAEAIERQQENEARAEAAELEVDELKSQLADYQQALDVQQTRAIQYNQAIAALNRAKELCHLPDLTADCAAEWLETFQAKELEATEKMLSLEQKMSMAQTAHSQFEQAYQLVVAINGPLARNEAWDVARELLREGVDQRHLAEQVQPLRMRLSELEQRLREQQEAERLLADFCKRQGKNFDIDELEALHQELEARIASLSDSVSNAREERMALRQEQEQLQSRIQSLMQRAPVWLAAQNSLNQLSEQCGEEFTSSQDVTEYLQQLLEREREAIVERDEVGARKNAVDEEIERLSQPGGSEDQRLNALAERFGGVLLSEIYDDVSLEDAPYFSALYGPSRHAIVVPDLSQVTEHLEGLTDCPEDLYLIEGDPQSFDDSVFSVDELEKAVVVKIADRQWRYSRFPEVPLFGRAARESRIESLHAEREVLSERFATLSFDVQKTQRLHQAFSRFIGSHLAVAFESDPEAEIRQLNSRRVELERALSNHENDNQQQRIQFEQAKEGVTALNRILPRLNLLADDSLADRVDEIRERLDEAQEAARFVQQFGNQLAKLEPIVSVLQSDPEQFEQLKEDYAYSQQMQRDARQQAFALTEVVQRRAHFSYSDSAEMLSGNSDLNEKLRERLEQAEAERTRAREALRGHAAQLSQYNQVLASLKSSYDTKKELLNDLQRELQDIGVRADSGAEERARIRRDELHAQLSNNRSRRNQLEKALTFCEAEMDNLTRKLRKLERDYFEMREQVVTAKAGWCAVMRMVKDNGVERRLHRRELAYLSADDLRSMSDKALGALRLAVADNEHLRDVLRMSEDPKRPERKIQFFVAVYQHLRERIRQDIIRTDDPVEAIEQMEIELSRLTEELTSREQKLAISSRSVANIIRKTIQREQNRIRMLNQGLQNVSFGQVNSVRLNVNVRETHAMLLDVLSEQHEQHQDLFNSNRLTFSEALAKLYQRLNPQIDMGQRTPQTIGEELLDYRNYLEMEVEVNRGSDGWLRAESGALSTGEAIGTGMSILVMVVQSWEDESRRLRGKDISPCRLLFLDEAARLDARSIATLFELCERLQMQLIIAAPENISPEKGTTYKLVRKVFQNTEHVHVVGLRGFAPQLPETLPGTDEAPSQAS

Hinge–Flag = molecular target: T3, Hinge–Flag (E. coli, UniProt P22523 566-863); test: as above
T3 construct: MukB, E. coli, residues 566-863 (Hinge construct); printed MW with Flag 35.2 kDa; Hinge proteins gave 2 bands on SDS-PAGE, maybe because of proteolytic cleavage; also called FLAG-tagged Hinge
T3 sequence (looked up): T1 sequence (looked up)

MukB-6×His, purified = molecular target: T4, MukB-6×His, purified (E. coli, UniProt P22523 1-1486); test: co-IP; MatPΔC18–Flag from cell lysate bound to anti-Flag M2 Affinity gel and washed; purified MukB, MukE, MukF added as indicated in 50 mM HEPES pH 7.5, 100 mM NaCl, 45 min, 4 °C; SDS-PAGE
T4 construct: MukB, E. coli; printed MW with 6×His 172.6 kDa; The printed mass fits the whole protein; source: E. coli C3013I, pET vector, purified
T4 sequence (looked up): T2 sequence (looked up)

binding result [1]: binds
binding result (MukB–Flag): binds
binding result (Hinge–Flag): binds
B1: MatPΔC18-6×His, purified (domain or fragment, E. coli, UniProt P0A8N0 1-132, looked up)
chain: MKYQQLENLESGWKWKYLVKKHREGELITRYIEASAAQEAVDVLLSLENEPVLVNGWIDKHMNPELVNRMKQTIRARRKRHFNAEHQHTRKKSIDLEFIVWQRLAGLAQRRGKTLSETIVQLIEDAENKEKY
notes: MatP, E. coli, truncated by its 18 C-terminal amino-acid residues; printed MW with 6×His 18.3 kDa; source: E. coli C3013I, pET vector, purified

binding result (MukB-6×His, purified): binds
B2: MatPΔC18–Flag (domain or fragment, E. coli, UniProt P0A8N0 1-132, looked up)
chain: B1 chain
notes: MatP, E. coli, truncated by its 18 C-terminal amino-acid residues; printed MW with Flag 16.9 kDa; also called FLAG-tagged MatPΔC18
